Experimental data as given in patent EP4703474A1, “ANTI-LRRC15 ANTIBODY” (priority 2023, dated 2024).

Legend:
[1] = test system: LRRC15-positive human melanoma cell line Hs294T; test: In vitro cell growth inhibitory activity (CellTiter-Glo 2.0); type: cell-based; settings: 20 ng/mL TGFβ1-containing medium, 0.0002 to 1.5 µg/mL, 6 days of culture, compared to control hIgG-PBD
Protocol: (§1) LRRC15-positive human osteosarcoma cell line HuO9 (JCRB) was seeded in 10% FBS-containing RPMI medium at 5 x 10^3 cells/50 μL/well, LRRC15-positive human melanoma cell line Hs294T was seeded in 10% FBS and 20 ng/mL TGFβ1-containing RPMI medium at 5 x 10^3 cells/50 μL/well, or, as a negative control, LRRC15-negative HEK293α was seeded in 10% FBS-containing RPMI medium at 2 x 10^3 cells/50 μL/well in a 96-well plate, and cultured overnight under conditions of 37°C and 5% CO2. The next day, the three types of hR024-drug conjugates (clone names of […]-PBD, […]-V1-PBD, and […]-V2-PBD) prepared in Example 5 and the control hIgG-PBD were diluted at a common ratio of 3 to a final concentration of 0.0002 (μg/mL) from 1.5 (μg/mL) and added. After 6 days of culture, the number of viable cells was measured by quantification of ATP using CellTiter-Glo 2.0 Assay (Promega).

[2] = test system: LRRC15-positive human osteosarcoma cell line HuO9; test: as above; type: cell-based; settings: 0.0002 to 1.5 µg/mL, 6 days of culture, compared to control hIgG-PBD
Protocol: as §1

[3] = test system: LRRC15-negative HEK293α; test: In vitro cell growth inhibitory activity (CellTiter-Glo 2.0), negative control cells; type: cell-based; settings: 0.0002 to 1.5 µg/mL, 6 days of culture, compared to control hIgG-PBD
Protocol: as §1

[4] = test system: LRRC15-negative human lung carcinoma cell line EBC-1; test: In vivo antitumor effect, EBC-1 subcutaneous transplant model; settings: tail vein, on Day 9, female SCID mice
Protocol: The antitumor effects of the antibody-drug conjugates were evaluated by using animal models in which cells of the human tumor cell line had been transplanted into immunodeficient mice. 4 to 6 Week-old SCID mice (CB17/Icr-Prkdc[scid]/CrlCrlj, Jackson Laboratory Japan, Inc.) were habituated for 3 days or more under SPF conditions before experimental use. The mice were fed with sterilized solid feed (FR-2, Funabashi Farms Co., Ltd.) and given sterilized tap water (prepared by adding a solution of 5 to 15 ppm sodium hypochlorite). The major and minor diameters of the transplanted tumors were measured twice a week with an electronic digital caliper ([…] Corporation), and the estimated tumor volume was calculated using the following formula. Estimated tumor volume (mm^3) = 1/2 × major diameter (mm) × [minor diameter (mm)]^2 All antibody-drug conjugates were diluted with ABS and administered into the tail vein at doses shown in each Example. In addition, ABS (vehicle) or control hIgG-PBD prepared in Reference Example 4 was administered as the control group, in a similar manner. 5 to 6 Mice were used per group in the experiment. LRRC15-negative human lung carcinoma cell line EBC-1 (JCRB) was suspended in PBS mixed with 50% Matrigel (Corning Incorporated), 1.0 × 10^6 cells were subcutaneously transplanted into the right flank of female SCID mice (Day 0), and random grouping was performed on Day 9. From publicly known information, it is known that in this tumor model, carcinoma cells are LRRC15 negative, and cells in the tumor stroma are LRRC15 positive (International Publication No. 2017/095805). On the day of grouping, a vehicle, the antibody-drug conjugate […]-PBD, […]-V1-PBD, or […]-V2-PBD prepared in Example 5 was administered into the tail vein at a dose of 0.4 mg or 0.2 mg/kg. The abscissa indicates the number of days, and the ordinate indicates estimated tumor volume, and the error bars indicate SEM values. […] The antitumor effects of the antibody-drug conjugates were evaluated by using animal models in which cells of a human tumor cell line had been transplanted into immunodeficient mice, or cells of a mouse tumor cell line had been transplanted into immunocompetent mice. 4 to 6 Week-old SCID mice (CB17/Icr-Prkdc[scid]/CrlCrlj, Jackson Laboratory Japan, Inc.), NSG mice (NOD.Cg-Prkdcscid Il2rgtm1Wjl/SzJ, Jackson Laboratory Japan, Inc.), or B6J mice (C57BL/6J, Jackson Laboratory Japan, Inc.) were habituated for 3 days or more under SPF conditions before experimental use. The mice were fed with sterilized solid feed and given sterilized tap water. The major and minor diameters of the transplanted tumors were measured twice a week with an electronic digital caliper (Mitutoyo Corporation), and the estimated tumor volume was calculated using the following formula. […]

Molecule	inhibitory activity against cell growth [1]	inhibitory activity against cell growth [2]	inhibitory activity against cell growth [3]	antitumor effect (estimated tumor volume) ([4]; 0.4 mg or 0.2 mg/kg)	antitumor effect (estimated tumor volume) ([4]; 0.3 mg/kg, huM25-PBD at the same dose)
H02L01-PBD (conjugate) heavy: EVQLVESGGGLVQPGGSLRLSCAASGFTFRDYYMAWVRQAPGKGLEWVSSIGFDESRTYYADSVKGRFTISRDDSKNTLYLQMNSLRAEDTAVYYCARHGVSYYSGDNWFAYWGQGTLVTVSSASTKGPSVFPLAPSSKSTSGGTAALGCLVKDYFPEPVTVSWNSGALTSGVHTFPAVLQSSGLYSLSSVVTVPSSSLGTQTYICNVNHKPSNTKVDKKVEPKSCDKTHTCPPCPAPEAAGGPSVFLFPPKPKDTLMISRTPEVTCVVVDVSHEDPEVKFNWYVDGVEVHNAKTKPREEQYNSTYRVVSVLTVLHQDWLNGKEYKCKVSNKALAAPIEKTISKAKGQPREPQVYTLPPSREEMTKNQVSLTCLVKGFYPSDIAVEWESNGQPENNYKTTPPVLDSDGSFFLYSKLTVDKSRWQQGNVFSCSVMHEALHNHYTQKSLSLSPGK light: DIQMTQSPSSLSASVGDRVTITCKSSQGLLYSGDQKNYLAWYQQKPGKAPKLLIYWASTRQSGVPSRFSGSGSGTDFTLTISSLQPEDFATYYCQQYYDPPYTFGQGTKVEIKRTVAAPSVFIFPPSDEQLKSGTASVVCLLNNFYPREAKVQWKVDNALQSGNSQESVTEQDSKDSTYSLSSTLTLSKADYEKHKVYACEVTHQGLSSPVTKSFNRGEC	inhibited tumor cell proliferation when added at a lower concentration	inhibited tumor cell proliferation when added at a lower concentration	growth inhibitory activity equivalent to that of the control hIgG-PBD	antitumor activity higher than that of the vehicle group	–
H02L01-V1-PBD (conjugate) heavy: EVQLVESGGGLVQPGGSLRLSCAASGFTFRDYYMAWVRQAPGKGLEWVSSIGFDESRTYYADSVKGRFTISRDDSKNTLYLQMNSLRAEDTAVYYCARHGVSKYSGDNWFAYWGQGTLVTVSSASTKGPSVFPLAPSSKSTSGGTAALGCLVKDYFPEPVTVSWNSGALTSGVHTFPAVLQSSGLYSLSSVVTVPSSSLGTQTYICNVNHKPSNTKVDKKVEPKSCDKTHTCPPCPAPEAAGGPSVFLFPPKPKDTLMISRTPEVTCVVVDVSHEDPEVKFNWYVDGVEVHNAKTKPREEQYNSTYRVVSVLTVLHQDWLNGKEYKCKVSNKALAAPIEKTISKAKGQPREPQVYTLPPSREEMTKNQVSLTCLVKGFYPSDIAVEWESNGQPENNYKTTPPVLDSDGSFFLYSKLTVDKSRWQQGNVFSCSVMHEALHNHYTQKSLSLSPGK light: DIQMTQSPSSLSASVGDRVTITCKSSQGLLYSGDQKNYLAWYQQKPGKAPKLLIYWASTRQSGVPSRFSGSGSGTDFTLTISSLQPEDFATYYCQQYYDPPYTFGQGTKVEIKRTVAAPSVFIFPPSDEQLKSGTASVVCLLNNFYPREAKVQWKVDNALQSGNSQESVTEQDSKDSTYSLSSTLTLSKADYEKHKVYACEVTHQGLSSPVTKSFNRGEC	inhibited tumor cell proliferation when added at a lower concentration	inhibited tumor cell proliferation when added at a lower concentration	growth inhibitory activity equivalent to that of the control hIgG-PBD	antitumor activity higher than that of the vehicle group	antitumor activity higher than that of the vehicle and huM25-PBD
H02L01-V2-PBD (conjugate) heavy: EVQLVESGGGLVQPGGSLRLSCAASGFTFRDYYMAWVRQAPGKGLEWVSSIGFDESRTYYADSVKGRFTISRDDSKNTLYLQMNSLRAEDTAVYYCARHGVSRYSGDNWFAYWGQGTLVTVSSASTKGPSVFPLAPSSKSTSGGTAALGCLVKDYFPEPVTVSWNSGALTSGVHTFPAVLQSSGLYSLSSVVTVPSSSLGTQTYICNVNHKPSNTKVDKKVEPKSCDKTHTCPPCPAPEAAGGPSVFLFPPKPKDTLMISRTPEVTCVVVDVSHEDPEVKFNWYVDGVEVHNAKTKPREEQYNSTYRVVSVLTVLHQDWLNGKEYKCKVSNKALAAPIEKTISKAKGQPREPQVYTLPPSREEMTKNQVSLTCLVKGFYPSDIAVEWESNGQPENNYKTTPPVLDSDGSFFLYSKLTVDKSRWQQGNVFSCSVMHEALHNHYTQKSLSLSPGK light: DIQMTQSPSSLSASVGDRVTITCKSSQGLLYSGDQKNYLAWYQQKPGKAPKLLIYWASTRQSGVPSRFSGSGSGTDFTLTISSLQPEDFATYYCQQYYDPPYTFGQGTKVEIKRTVAAPSVFIFPPSDEQLKSGTASVVCLLNNFYPREAKVQWKVDNALQSGNSQESVTEQDSKDSTYSLSSTLTLSKADYEKHKVYACEVTHQGLSSPVTKSFNRGEC	inhibited tumor cell proliferation when added at a lower concentration	inhibited tumor cell proliferation when added at a lower concentration	growth inhibitory activity equivalent to that of the control hIgG-PBD	antitumor activity higher than that of the vehicle group	–
